B1: ATF-methioninase fusion protein (other)
chain: SNELHQVPSNCDCLNGGTCVSNKYFSNIHWCNCPKKFGGQHCEIDKSKTGSGSGSRDSHNNTGFSTRAIHHGYDPLSHGGALVPPVYQTATYAFPTVEYGAACFAGEEAGHFYSRISNPTLALLEQRMASLEGGEAGLALASGMGAITSTLWTLLRPGDELIVGRTLYGCTFAFLHHGIGEFGVKIHHVDLNDAKALKAAINSKTRMIYFETPANPNMQLVDIAAVVEAVRGSDVLVVVDNTYCTPYLQRPLELGADLVVHSATKYLSGHGDITAGLVVGRKALVDRIRLEGLKDMTGAALSPHDAALLMRGIKTLALRMDRHCANALEVAQFLAGQPQVELIHYPGLPSFAQYELAQRQMRLPGGMIAFELKGGIEAGRGFMNALQLFARAVSLGDAESLAQHPASMTHSSYTPQERAHHGISEGLVRLSVGLEDVEDLLADIELALEACA
notes: also called FP
B2: L-methioninase from Pseudomonas putida (enzyme)
chain: MRDSHNNTGFSTRAIHHGYDPLSHGGALVPPVYQTATYAFPTVEYGAACFAGEEAGHFYSRISNPTLALLEQRMASLEGGEAGLALASGMGAITSTLWTLLRPGDELIVGRTLYGCTFAFLHHGIGEFGVKIHHVDLNDAKALKAAINSKTRMIYFETPANPNMQLVDIAAVVEAVRGSDVLVVVDNTYCTPYLQRPLELGADLVVHSATKYLSGHGDITAGLVVGRKALVDRIRLEGLKDMTGAALSPHDAALLMRGIKTLALRMDRHCANALEVAQFLAGQPQVELIHYPGLPSFAQYELAQRQMRLPGGMIAFELKGGIEAGRGFMNALQLFARAVSLGDAESLAQHPASMTHSSYTPQERAHHGISEGLVRLSVGLEDVEDLLADIELALEACA
notes: also called free L-methioninase

How the values were obtained:
[1] = target: T1, urokinase receptor on MCF-7 human breast cancer cells (human, UniProt Q03405 23-305); assay: displacement assay on MCF-7 cells (summary of Example 1)
T1 construct: whole, on cells; also called uPA receptor; urokinase receptors

[2] = target: T1, urokinase receptor on MCF-7 human …; assay: immunocytochemistry of MCF-7 cells with anti-L-methioninase antibody, 18 h treatment

T1 sequence (Q03405 23-305): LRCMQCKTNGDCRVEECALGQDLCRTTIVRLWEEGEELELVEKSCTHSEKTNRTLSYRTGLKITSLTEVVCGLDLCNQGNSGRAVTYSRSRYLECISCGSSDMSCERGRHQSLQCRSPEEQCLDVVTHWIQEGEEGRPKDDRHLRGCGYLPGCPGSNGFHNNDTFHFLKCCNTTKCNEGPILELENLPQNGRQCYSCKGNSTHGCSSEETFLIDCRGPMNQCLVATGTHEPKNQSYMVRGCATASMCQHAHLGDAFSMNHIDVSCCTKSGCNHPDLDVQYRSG

Row | Binder | binding result [1] | binding result [2]
1 | B1 | binds | –
2 | B2 | – | no binding (tested: 10^-6 M)

From US20070207158A1 (BOARD OF REGENTS OF THE UNIVERSITY OF OKLAHOMA, published 2007)
